Substitutions are numbered along the chain they refer to. Like-named read-outs stand apart in the source and are kept apart here.
Assays:
[1] = molecular target: T1, human CEACAM5 expressed on human cancer cell lines (MKN-45, NCI-H441, SK-CO-1, SNU-16, LS174T) (human, UniProt P06731 35-685); assay: binding to MKN-45 cells
T1 construct: Endogenous protein on cells; also called MKN45 cell line expressing human CEACAM5; CEACAM5-positive cell lines
T1 sequence: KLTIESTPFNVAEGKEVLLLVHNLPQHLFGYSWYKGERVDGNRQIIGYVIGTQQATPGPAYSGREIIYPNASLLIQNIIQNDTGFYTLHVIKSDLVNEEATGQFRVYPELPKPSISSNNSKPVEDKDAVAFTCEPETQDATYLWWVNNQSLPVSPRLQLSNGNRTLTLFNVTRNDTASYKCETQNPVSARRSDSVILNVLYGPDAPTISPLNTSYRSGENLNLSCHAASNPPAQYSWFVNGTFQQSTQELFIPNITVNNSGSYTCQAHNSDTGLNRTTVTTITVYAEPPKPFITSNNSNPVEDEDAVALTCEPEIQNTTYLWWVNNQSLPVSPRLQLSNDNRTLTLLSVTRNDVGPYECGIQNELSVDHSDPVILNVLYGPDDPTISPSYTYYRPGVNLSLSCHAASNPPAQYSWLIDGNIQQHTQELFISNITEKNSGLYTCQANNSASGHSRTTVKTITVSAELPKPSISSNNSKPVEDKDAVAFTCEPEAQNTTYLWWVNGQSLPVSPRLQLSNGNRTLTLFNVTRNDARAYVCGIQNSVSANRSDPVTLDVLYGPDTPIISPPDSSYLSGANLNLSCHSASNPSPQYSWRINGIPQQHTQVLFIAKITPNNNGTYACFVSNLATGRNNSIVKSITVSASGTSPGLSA

[2] = molecular target: T1, human CEACAM5 expressed on human cancer …; assay: cell-based or functional assay
[3] = molecular target: T1, human CEACAM5 expressed on human cancer …; assay: cell-based or functional assay; remark: listed apart in the source
[4] = molecular target: T1, human CEACAM5 expressed on human cancer …; assay: flow cytometry on MKN-45 cells, antibody titrated
[5] = molecular target: T1, human CEACAM5 expressed on human cancer …; assay: cellular binding on MKN45 cells (FIG. 2)
[6] = molecular target: T1, human CEACAM5 expressed on human cancer …; assay: cell-based or functional assay; remark: listed apart in the source
[7] = molecular target: T1, human CEACAM5 expressed on human cancer …; assay: cell-based or functional assay; remark: listed apart in the source

B1: Variant 1 (VH1.00/VL1.00) (antibody, V domains shown)
VH: EVQLQESGPGLVKPSQTLSLTCTVSDGSVSRGGYYLTWIRQHPGKGLEWIGYIYYSGSTYFNPSLRSRLTMSVDTSKNQFSLKLSSVTAADTAVYYCARGIAVAPFDYWGQGTLVTVSS
VL: ETTLTQSPATLSVSPGERATLSCRTSQSVRSNLAWYQQKPGQAPRLLIYAASTRATGIPARFSGSGSGTEFTLTIGSLQSEDFAVYFCQQYTNWPFTFGPGTKVEIKR
notes: also called optimized antibody Variant 1
B1: binds [1].

B2: Variant 6 (VH1.02/VL1.00) (antibody, V domains shown)
VH: B1 VH with L69V
VL: B1 VL
notes: also called optimized antibody Variant 6
B2: binds [1].

B3: ADC1 (mAb1-glucuronid-exatecan) (antibody, human IgG1, kappa)
heavy: EVQLQESGPGLVKPSQTLSLTCTVSDGSVSRGGYYLTWIRQHPGKGLEWIGYIYYSGSTYFNPSLRSRVTMSVDTSKNQFSLKLSSVTAADTAVYYCARGIAVAPFDYWGQGTLVTVSSASTKGPSVFPLAPSSKSTSGGTAALGCLVKDYFPEPVTVSWNSGALTSGVHTFPAVLQSSGLYSLSSVVTVPSSSLGTQTYICNVNHKPSNTKVDKRVEPKSCDKTHTCPPCPAPPVAGPSVFLFPPKPKDTLMISRTPEVTCVVVDVSHEDPEVKFNWYVDGVEVHNAKTKPREEQYNSTYRVVSVLTVLHQDWLNGKEYKCKVSNKALPSSIEKTISKAKGQPREPQVYTLPPSREEMTKNQVSLTCLVKGFYPSDIAVEWESNGQPENNYKTTPPVLDSDGSFFLYSKLTVDKSRWQQGNVFSCSVMHEALHNHYTQKSLSLSPG
light: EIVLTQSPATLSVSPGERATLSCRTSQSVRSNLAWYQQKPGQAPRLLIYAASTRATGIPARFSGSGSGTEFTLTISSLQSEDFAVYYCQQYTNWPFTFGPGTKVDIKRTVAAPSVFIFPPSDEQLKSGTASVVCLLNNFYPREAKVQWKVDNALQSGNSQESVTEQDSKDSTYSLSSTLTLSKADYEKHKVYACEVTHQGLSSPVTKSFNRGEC
modifications: drug-linker DL1 on the reduced interchain cysteine; drug-linker DL1 (maleimido-beta-glucuronide-exatecan) on sulfur of reduced interchain cysteines; DAR 7.9 for the whole antibody
With B3 the “IC50 [M], cell viability assay (Cell Titer-Glo, 6 days), LS174T cells” value (“IC50 [M], cell viability assay … LS174T cells” below) [2] was 3.8e-10 M, the “IC50 [M], cell viability assay (Cell Titer-Glo, 6 days), MKN-45 cells” value (“IC50 [M], cell viability assay … MKN-45 cells” below) [2] was 6.2e-10 M and the “IC50 [M], cell viability assay (Cell Titer-Glo, 6 days), SK-CO-1 cells” value (“IC50 [M], cell viability assay … SK-CO-1 cells” below) [2] was 8.5e-11 M. The “IC50 [M], cell viability assay (Cell Titer-Glo, 6 days), SNU-16 cells” value (“IC50 [M], cell viability assay … SNU-16 cells” for short) [2] was 3.2e-10 M and the “fold higher potency than ADC SAR DM4 against SK-CO-1 cells (viability assay)” value [3] was 2.9 fold.

B4: ADC2 (mAb1-AAN-exatecan) (antibody, human IgG1, kappa)
heavy: B3 heavy
light: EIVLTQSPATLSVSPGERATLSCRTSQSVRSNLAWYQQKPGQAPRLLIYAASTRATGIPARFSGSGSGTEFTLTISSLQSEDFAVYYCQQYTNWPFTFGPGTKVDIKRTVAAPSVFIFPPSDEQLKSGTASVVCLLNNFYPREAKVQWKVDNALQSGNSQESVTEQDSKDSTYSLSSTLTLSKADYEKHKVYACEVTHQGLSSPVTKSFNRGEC
modifications: drug-linker DL2 on the reduced interchain cysteine; drug-linker DL2 (legumain-cleavable Ala-Ala-Asn linker, exatecan) on reduced interchain cysteines; DAR 7.6 for the whole antibody
B4 was tested, and the “IC50 [M], cell viability assay … LS174T cells” value [2] was 2.8e-10 M, the “IC50 [M], cell viability assay … MKN-45 cells” value [2] was 4.7e-10 M and the “IC50 [M], cell viability assay … SK-CO-1 cells” value [2] was 6.9e-11 M. The “IC50 [M], cell viability assay … SNU-16 cells” value [2] was 2.8e-10 M and the “fold higher potency than ADC SAR DM4 against SK-CO-1 cells (viability assay)” value [3] was 2.7 fold.

B5: Rituximab (antibody, human IgG1, kappa, V domains shown)
VH: QVQLQQPGAELVKPGASVKMSCKASGYTFTSYNMHWVKQTPGRGLEWIGAIYPGNGDTSYNQKFKGKATLTADKSSSTAYMQLSSLTSEDSAVYYCARSTYYGGDWYFNVWGAGTTVTVSA
VL: QIVLSQSPAILSASPGEKVTMTCRASSSVSYIHWFQQKPGSSPKPWIYATSNLASGVPVRFSGSGSGTSYSLTISRVEAEDAATYYCQQWTSNPPTFGGGTKLEIKR
notes: also called mAb4-M; anti-CD20 control antibody
B5: no binding (tested: 2000 nM) [4].

B6: hmn-14 (hMN14, antibody of labetuzumab govitecan) (antibody, human IgG1, kappa, V domains shown)
VH: EVQLVESGGGVVQPGRSLRLSCSASGFDFTTYWMSWVRQAPGKGLEWIGEIHPDSSTINYAPSLKDRFTISRDNAKNTLFLQMDSLRPEDTGVYFCASLYFGFPWFAYWGQGTPVTVSS
VL: DIQLTQSPSSLSASVGDRVTITCKASQDVGTSVAWYQQKPGKAPKLLIYWTSTRHTGVPSRFSGSGSGTDFTFTISSLQPEDIATYYCQQYSLYRSFGQGTKVEIKR
B6 gave an EC50 [5] of 11.8 nM.

B7: ADC1-M (conjugate of mAb1-M with DL1) (antibody, human IgG1, kappa, L234A L235A)
heavy: EVQLQESGPGLVKPSQTLSLTCTVSDGSVSRGGYYLTWIRQHPGKGLEWIGYIYYSGSTYFNPSLRSRVTMSVDTSKNQFSLKLSSVTAADTAVYYCARGIAVAPFDYWGQGTLVTVSSASTKGPSVFPLAPSSKSTSGGTAALGCLVKDYFPEPVTVSWNSGALTSGVHTFPAVLQSSGLYSLSSVVTVPSSSLGTQTYICNVNHKPSNTKVDKRVEPKSCDKTHTCPPCPAPEAAGGPSVFLFPPKPKDTLYITREPEVTCVVVDVSHEDPEVKFNWYVDGVEVHNAKTKPREEQYNSTYRVVSVLTVLHQDWLNGKEYKCKVSNKALPAPIEKTISKAKGQPREPQVYTLPPSREEMTKNQVSLTCLVKGFYPSDIAVEWESNGQPENNYKTTPPVLDSDGSFFLYSKLTVDKSRWQQGNVFSCSVMHEALHNHYTQKSLSLSPG
light: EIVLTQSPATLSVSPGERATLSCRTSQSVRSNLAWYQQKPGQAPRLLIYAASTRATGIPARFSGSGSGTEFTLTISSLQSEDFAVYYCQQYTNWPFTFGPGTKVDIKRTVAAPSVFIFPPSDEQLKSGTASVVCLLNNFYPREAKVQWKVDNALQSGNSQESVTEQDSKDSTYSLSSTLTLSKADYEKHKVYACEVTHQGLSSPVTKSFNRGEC
modifications: DL1 by interchain cysteine conjugation; DL1 (maleimido-b-glucuronide-exatecan) by interchain cysteine conjugation; DAR 8.16
B7 was tested, and the “IC50 [M], cell viability assay … LS174T cells” value [6] was 6e-10 M, the “IC50 [M], cell viability assay … MKN-45 cells” value [6] was 5.2e-10 M and the “IC50 [M], cell viability assay … SK-CO-1 cells” value [6] was 7.6e-11 M. The “IC50 [M], cell viability assay … SNU-16 cells” value [6] was 3.6e-10 M, the “SPECIFICITY FACTOR (IC50 in CEACAM5-negative MDA-MB-231 divided by IC50 in MKN-45)” value [7] was 201 fold and the “SPECIFICITY FACTOR (IC50 in CEACAM5-negative MDA-MB-231 divided by IC50 in SK-CO-1)” value [7] was 874 fold. For the same binder, the “SPECIFICITY FACTOR (IC50 in CEACAM5-negative MDA-MB-231 divided by IC50 in SNU-16)” value [7] was 242 fold.

B8: ADC2-M (conjugate of mAb2-M with DL1-M) (antibody, human IgG1, kappa, L234A L235A)
heavy: B7 heavy
light: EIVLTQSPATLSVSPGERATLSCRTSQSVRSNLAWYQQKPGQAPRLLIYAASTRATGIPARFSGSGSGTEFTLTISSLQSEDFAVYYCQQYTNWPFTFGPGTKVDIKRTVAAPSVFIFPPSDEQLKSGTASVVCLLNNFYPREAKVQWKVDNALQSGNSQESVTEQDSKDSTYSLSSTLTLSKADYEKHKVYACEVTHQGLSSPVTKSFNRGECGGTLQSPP
modifications: MTG tag GGTLQSPP at the C-terminus is a conjugation site for DL1-M; DL1-M (NH2-GGG-b-glucuronide-exatecan) coupled by microbial transglutaminase; DAR 3.86 for the whole antibody; residues carrying the drug not stated
B8 was tested, and the “IC50 [M], cell viability assay … LS174T cells” value [6] was 8.5e-10 M, the “IC50 [M], cell viability assay … MKN-45 cells” value [6] was 1.2e-09 M and the “IC50 [M], cell viability assay … SK-CO-1 cells” value [6] was 1.1e-10 M. For the same binder, the “IC50 [M], cell viability assay … SNU-16 cells” value [6] was 5.1e-09 M, the “SPECIFICITY FACTOR (IC50 in MDA-MB-231, set to 100 nM, divided by IC50 in MKN-45)” value [7] was over 167 fold and the “SPECIFICITY FACTOR (IC50 in MDA-MB-231, set to 100 nM, divided by IC50 in SK-CO-1)” value [7] was over 632 fold. The “SPECIFICITY FACTOR (IC50 in MDA-MB-231, set to 100 nM, divided by IC50 in SNU-16)” value [7] was over 207 fold.

Source: patent US20250179210A1 (Merck KGaA, published 2025)
